# Measured values: patent US20090148383A1
# Assays:
# [1] = target: recombinant tick anticoagulant peptide (rTAP) (UniProt P17726)
# [2] = target: activated, fibrinogen-bound GP IIb/IIIa on activated mouse platelets (mouse) (UniProt Q9QUM0); experiment: ex vivo 11.7 T MRI of the wire-injured mouse femoral artery after bead perfusion
# [3] = target: activated, fibrinogen-bound GP IIb/IIIa on activated mouse platelets (mouse) (UniProt Q9QUM0); experiment: histology of the wire-injured mouse femoral artery after bead perfusion
# Chain of activated, fibrinogen-bound GP IIb/IIIa on activated mouse platelets (mouse) (Q9QUM0 32-1033, chain 1 of 2): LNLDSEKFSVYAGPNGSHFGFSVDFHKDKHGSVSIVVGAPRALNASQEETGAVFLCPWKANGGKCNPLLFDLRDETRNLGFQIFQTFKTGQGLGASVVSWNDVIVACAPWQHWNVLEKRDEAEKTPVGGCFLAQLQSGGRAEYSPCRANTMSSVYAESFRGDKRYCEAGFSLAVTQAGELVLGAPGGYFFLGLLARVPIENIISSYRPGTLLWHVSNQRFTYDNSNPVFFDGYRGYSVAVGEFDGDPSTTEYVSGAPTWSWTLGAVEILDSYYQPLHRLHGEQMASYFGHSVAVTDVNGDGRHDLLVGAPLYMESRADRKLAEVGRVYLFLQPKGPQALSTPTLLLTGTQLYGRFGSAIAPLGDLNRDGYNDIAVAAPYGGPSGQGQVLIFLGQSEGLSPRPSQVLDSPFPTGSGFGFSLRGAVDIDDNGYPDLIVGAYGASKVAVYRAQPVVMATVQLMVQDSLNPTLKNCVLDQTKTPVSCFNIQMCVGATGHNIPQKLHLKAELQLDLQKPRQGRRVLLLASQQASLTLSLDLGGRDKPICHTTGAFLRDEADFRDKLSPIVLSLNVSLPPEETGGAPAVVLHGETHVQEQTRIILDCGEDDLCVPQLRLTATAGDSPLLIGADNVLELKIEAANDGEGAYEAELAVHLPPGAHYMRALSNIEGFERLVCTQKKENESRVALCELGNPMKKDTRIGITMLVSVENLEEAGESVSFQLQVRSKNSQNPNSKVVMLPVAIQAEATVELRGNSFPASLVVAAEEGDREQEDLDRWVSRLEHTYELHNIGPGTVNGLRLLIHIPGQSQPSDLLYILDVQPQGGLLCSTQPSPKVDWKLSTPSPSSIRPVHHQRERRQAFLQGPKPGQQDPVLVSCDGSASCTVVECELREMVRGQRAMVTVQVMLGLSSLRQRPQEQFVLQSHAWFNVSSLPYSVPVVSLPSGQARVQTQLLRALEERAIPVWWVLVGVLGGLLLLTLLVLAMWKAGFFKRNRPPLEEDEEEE
# Chain of activated, fibrinogen-bound GP IIb/IIIa on activated mouse platelets (mouse) (O54890 26-787, chain 2 of 2, further chain): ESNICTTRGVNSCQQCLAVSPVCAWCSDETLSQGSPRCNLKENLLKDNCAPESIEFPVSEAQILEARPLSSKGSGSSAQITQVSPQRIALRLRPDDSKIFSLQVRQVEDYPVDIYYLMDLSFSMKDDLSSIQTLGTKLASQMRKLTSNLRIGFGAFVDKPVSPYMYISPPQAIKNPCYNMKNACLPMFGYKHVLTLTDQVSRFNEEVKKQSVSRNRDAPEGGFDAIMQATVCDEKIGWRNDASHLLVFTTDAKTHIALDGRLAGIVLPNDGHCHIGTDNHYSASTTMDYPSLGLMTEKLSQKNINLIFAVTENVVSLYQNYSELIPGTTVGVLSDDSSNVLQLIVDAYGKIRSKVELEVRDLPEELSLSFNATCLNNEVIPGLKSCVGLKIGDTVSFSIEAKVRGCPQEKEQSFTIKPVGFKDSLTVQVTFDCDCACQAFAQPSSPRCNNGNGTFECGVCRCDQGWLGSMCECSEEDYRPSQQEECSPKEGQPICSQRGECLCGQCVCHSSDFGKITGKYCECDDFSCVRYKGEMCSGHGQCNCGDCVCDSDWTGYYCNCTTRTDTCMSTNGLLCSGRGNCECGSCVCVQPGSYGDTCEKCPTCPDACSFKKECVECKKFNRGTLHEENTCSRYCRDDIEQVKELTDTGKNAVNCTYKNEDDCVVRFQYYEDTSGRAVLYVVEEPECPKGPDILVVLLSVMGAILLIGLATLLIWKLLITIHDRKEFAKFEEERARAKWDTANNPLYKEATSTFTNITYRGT
# Chain of recombinant tick anticoagulant peptide (rTAP) (P17726 whole entry, the tested form may be a part): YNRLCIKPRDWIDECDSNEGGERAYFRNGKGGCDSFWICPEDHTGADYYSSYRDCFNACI
Substance,"cleavage of chromogenic substrate (spectrozyme FXa #222) by factor Xa (500 pM), OD at 405 nm [1]",luminal areas of low signal suggesting MPIO-accumulation (ex vivo MRI) [2],MPIO-binding (beads per section) (beads per section) [3]
factor Xa,"inhibition of factor Xa activity by rTAP, scFv anti-LIBS-TAP, and non-targeted mut-scFv-TAP, but not by scFv anti-LIBS",–,–
irrelevant single-chain antibody conjugated to MPIO (Control-MPIO) (scFv),–,6.2,0.5
scFv anti-LIBS (anti-LIBS single-chain antibody),–,23.7,9.98
